In patent US20220089709A1 (HEFEI LIFEON PHARMACEUTICAL, published 2022):

B1: A11 antibody (Fc fusion)
chain: EVQLLESGGGLVQPGGSLRLSCAASGFTFSSYAMSWVRQAPGKGLEWVSRISPSGSSTYYADSVKGRFTISRDNSKNTLYLQMNSLRAEDTAVYYCARRMSYFDYWGQGTLVTVSSGGGGSGGGGSGGGGSSQSALTQPASVSGSPGQSITISCSGDSLGIGSNNYVSWYQQHPGKAPKLMIYDDNKRPSGVSNRFSGSKSGNTASLTISGLQAEDEADYYCQSWDGRQPVFGGGTKLTVLG
notes: Assayed as purified Fc-containing antibody from mammalian cells

Key:
[1] = target: ED-B domain of human fibronectin, recombinant, with C-terminal six-histidine tag (human) (UniProt P02751); assay: ELISA on coated ED-B, Scatchard assay (Beatty et al.)
[2] = target: T1, ED-B domain of human fibronectin, recombinant, with C-terminal six-histidine tag (human, UniProt P02751 1266-1356); assay: direct ELISA on coated ED-B, Scatchard analysis (Beatty et al.)
T1 construct: Expressed in E. coli from pET-22b(+) (EcoRI/NotI); residues from the vector between ED-B and the tag are not described; also called EDB antigen; antigen ED-B
T1 sequence (P02751 other isoform, or with tags, fused parts or gaps limits assumed): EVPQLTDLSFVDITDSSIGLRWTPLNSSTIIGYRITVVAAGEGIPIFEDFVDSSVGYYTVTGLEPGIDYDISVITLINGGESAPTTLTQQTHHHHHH

Chain of ED-B domain of human fibronectin, recombinant, with C-terminal six-histidine tag (human) (P02751 other isoform, or with tags, fused parts or gaps limits assumed): as above

Row | Molecule | Kd [1] [nM] | affinity relative to L19 [2] [fold]
1 | L19-Fc (Fc fusion) | 6 | –
2 | B1 | – | ~3
